{"source": "the RNAGym collection of RNA variant scans (doi:10.7554/elife.80360)", "parents": {"B1": {"name": "HDV Ribozyme (parent)", "chain": "GGCCGGCAUGGUCCCAGCCUCCUCGCUGGCGCCGGCUGGGCAACAUUCCGAGGGGACCGUCCCCUCGGUAAUGGCGAAUGGGACCCA"}}, "data": [{"variants_of": "B1", "assay": "self-cleavage, relative activity (ratio to wild type); higher = more cleavage; co-transcriptional", "values": [{"variant": "GGCCGGCAUGGUCCCAGCCUCCUCGCUGGCGCCGGCUGGGCAAAAUUCCAAGGGGACCGUCCCCUCGGUAAUGGCGAAUGGGACCCA", "note": "[C44A G50A]", "self-cleavage": 0.671}, {"variant": "GGCCGGCAUGGUCCCAGCCUCCUCGCUGGCGCCGGCUGGGCAAAAUUCCUAGGGGACCGUCCCCUCGGUAAUGGCGAAUGGGACCCA", "note": "[C44A G50U]", "self-cleavage": 0.594}, {"variant": "GGCCGGCAUGGUCCCAGCCUCCUCGCUGGCGCCGGCUGGGCAAGAUUCCGAGGGGGCCGUCCCCUCGGUAAUGGCGAAUGGGACCCA", "note": "[C44G A56G]", "self-cleavage": 0.886}, {"variant": "GGCCGGCAUGGUCCCAGCCUCCUCGCUGGCGCCGGCUGGGCAAGAUUCCGAGGGGCCCGUCCCCUCGGUAAUGGCGAAUGGGACCCA", "note": "[C44G A56C]", "self-cleavage": 0.745}, {"variant": "GGCCGGCAUGGUCCCAGCCUCCUCGCUGGCGCCGGCUGGGCAAAAUUCCGAGGGAACCGUCCCCUCGGUAAUGGCGAAUGGGACCCA", "note": "[C44A G55A]", "self-cleavage": 0.554}, {"variant": "GGCCGGCAUGGUCCCAGCCUCCUCGCUGGCGCCGGCUGGGCAAGAUUCCGAGGGGAGCGUCCCCUCGGUAAUGGCGAAUGGGACCCA", "note": "[C44G C57G]", "self-cleavage": 0.458}, {"variant": "GGCCGGCAUGGUCCCAGCCUCCUCGCUGGCGCCGGCUGGGCAAGAUUCCGAGGGGAACGUCCCCUCGGUAAUGGCGAAUGGGACCCA", "note": "[C44G C57A]", "self-cleavage": 0.944}, {"variant": "GGCCGGCAUGGUCCCAGCCUCCUCGCUGGCGCCGGCUGGGCAAGAUUCCGAGGGGAUCGUCCCCUCGGUAAUGGCGAAUGGGACCCA", "note": "[C44G C57U]", "self-cleavage": 0.745}, {"variant": "GGCCGGCAUGGUCCCAGCCUCCUCGCUGGCGCCGGCUGGGCAAGAUUCCGAGGGGACCGUCCCCUCGGUAAUGGCGAGUGGGACCCA", "note": "[C44G A78G]", "self-cleavage": 0.246}, {"variant": "GGCCGGCAUGGUCCCAGCCUCCUCGCUGGCGCCGGCUGGGCAAGAUUCCGAGGGGACCGUCCCCUCGGUAAUGGCGACUGGGACCCA", "note": "[C44G A78C]", "self-cleavage": 0.193}, {"variant": "GGCCGGCAUGGUCCCAGCCUCCUCGCUGGCGCCGGCUGGGCAAAAUUCCGAGGGGACCGUCCCCUCGCUAAUGGCGAAUGGGACCCA", "note": "[C44A G68C]", "self-cleavage": 0.764}, {"variant": "GGCCGGCAUGGUCCCAGCCUCCUCGCUGGCGCCGGCUGGGCAAAAUUCCGAGGGGACCGUCCCCUCGUUAAUGGCGAAUGGGACCCA", "note": "[C44A G68U]", "self-cleavage": 0.554}, {"variant": "GGCCGGCAUGGUCCCAGCCUCCUCGCUGGCGCCGGCUGGGCAAAAUUCCGAGGGGACCGUCCCCUCGGUAAUGGCGAAUCGGACCCA", "note": "[C44A G80C]", "self-cleavage": 0.109}, {"variant": "GGCCGGCAUGGUCCCAGCCUCCUCGCUGGCGCCGGCUGGGCAAAAUUCCGAGGGGACCGUCCCCUCGGUAAUGGCGAAUUGGACCCA", "note": "[C44A G80U]", "self-cleavage": 0.118}, {"variant": "GGCCGGCAUGGUCCCAGCCUCCUCGCUGGCGCCGGCUGGGCAAAAUUCCGAGGGGACCGUCCCCUCGGUAAUGGCGAAUAGGACCCA", "note": "[C44A G80A]", "self-cleavage": 0.169}, {"variant": "GGCCGGCAUGGUCCCAGCCUCCUCGCUGGCGCCGGCUGGGCAAGAUUCCGAGGGGACCGUGCCCUCGGUAAUGGCGAAUGGGACCCA", "note": "[C44G C61G]", "self-cleavage": 0.441}, {"variant": "GGCCGGCAUGGUCCCAGCCUCCUCGCUGGCGCCGGCUGGGCAAAAUGCCGAGGGGACCGUCCCCUCGGUAAUGGCGAAUGGGACCCA", "note": "[C44A U47G]", "self-cleavage": 0.906}, {"variant": "GGCCGGCAUGGUCCCAGCCUCCUCGCUGGCGCCGGCUGGGCAAAAUCCCGAGGGGACCGUCCCCUCGGUAAUGGCGAAUGGGACCCA", "note": "[C44A U47C]", "self-cleavage": 0.831}, {"variant": "GGCCGGCAUGGUCCCAGCCUCCUCGCUGGCGCCGGCUGGGCAAAAUACCGAGGGGACCGUCCCCUCGGUAAUGGCGAAUGGGACCCA", "note": "[C44A U47A]", "self-cleavage": 0.965}, {"variant": "GGCCGGCAUGGUCCCAGCCUCCUCGCUGGCGCCGGCUGGGCAAAAUUCCGAGGCGACCGUCCCCUCGGUAAUGGCGAAUGGGACCCA", "note": "[C44A G54C]", "self-cleavage": 0.618}, {"variant": "GGCCGGCAUGGUCCCAGCCUCCUCGCUGGCGCCGGCUGGGCAAAAUUCCGAGGUGACCGUCCCCUCGGUAAUGGCGAAUGGGACCCA", "note": "[C44A G54U]", "self-cleavage": 0.794}, {"variant": "GGCCGGCAUGGUCCCAGCCUCCUCGCUGGCGCCGGCUGGGCAAAAUUCCGAGGAGACCGUCCCCUCGGUAAUGGCGAAUGGGACCCA", "note": "[C44A G54A]", "self-cleavage": 0.759}, {"variant": "GGCCGGCAUGGUCCCAGCCUCCUCGCUGGCGCCGGCUGGGCAAAAUUCCGAGGGGACCGUCCCCUCGGUAAUGACGAAUGGGACCCA", "note": "[C44A G74A]", "self-cleavage": 0.381}, {"variant": "GGCCGGCAUGGUCCCAGCCUCCUCGCUGGCGCCGGCUGGGCAAAAUUCCGAGGGGACCGUCCCCUCGGUAAUGGCGAACGGGACCCA", "note": "[C44A U79C]", "self-cleavage": 0.122}, {"variant": "GGCCGGCAUGGUCCCAGCCUCCUCGCUGGCGCCGGCUGGGCAAAAUUCCGAGGGGACCGUCCCCUCGGUAAUGGCGAAAGGGACCCA", "note": "[C44A U79A]", "self-cleavage": 0.244}, {"variant": "GGCCGGCAUGGUCCCAGCCUCCUCGCUGGCGCCGGCUGGGCAAAAUUCCGAGGGGACCGUCCCCUCGGUAAUGGCGAAUGGUACCCA", "note": "[C44A G82U]", "self-cleavage": 0.0791}, {"variant": "GGCCGGCAUGGUCCCAGCCUCCUCGCUGGCGCCGGCUGGGCAAAAUUCCGAGGGGACCGUCCCCACGGUAAUGGCGAAUGGGACCCA", "note": "[C44A U65A]", "self-cleavage": 0.95}, {"variant": "GGCCGGCAUGGUCCCAGCCUCCUCGCUGGCGCCGGCUGGGCAAAAUUCCGAGGGGACCGUCCCCUCGGUAAUGGCGAAUGGGACCGA", "note": "[C44A C86G]", "self-cleavage": 0.787}, {"variant": "GGCCGGCAUGGUCCCAGCCUCCUCGCUGGCGCCGGCUGGGCAAAAUUCCGAGGGGACCUUCCCCUCGGUAAUGGCGAAUGGGACCCA", "note": "[C44A G59U]", "self-cleavage": 0.776}, {"variant": "GGCCGGCAUGGUCCCAGCCUCCUCGCUGGCGCCGGCUGGGCAAGUUUCCGAGGGGACCGUCCCCUCGGUAAUGGCGAAUGGGACCCA", "note": "[C44G A45U]", "self-cleavage": 0.776}, {"variant": "GGCCGGCAUGGUCCCAGCCUCCUCGCUGGCGCCGGCUGGGCAAGGUUCCGAGGGGACCGUCCCCUCGGUAAUGGCGAAUGGGACCCA", "note": "[C44G A45G]", "self-cleavage": 0.503}, {"variant": "GGCCGGCAUGGUCCCAGCCUCCUCGCUGGCGCCGGCUGGGCAAGAUUCCGAGGGGACAGUCCCCUCGGUAAUGGCGAAUGGGACCCA", "note": "[C44G C58A]", "self-cleavage": 1.07}]}]}
